Assay results reported in patent publication US20190282616A1, “MACROPHAGES REDIRECT PHAGOCYTOSIS BY NON-PROFESSIONAL PHAGOCYTES AND INFLUENCE INFLAMMATION” (University of Virginia Patent Foundation, priority 2016, published 2019).

B1: PDGF-BB: growth factor of the tested panel of soluble mediators (protein, UniProt P01127 82-190, looked up)
Platelet-derived growth …: SLGSLTIAEPAMIAECKTRTEVFEISRRLIDRTNANFLVWPPCVEVQRCSGCCNNRNVQCRPTQVQLRPVQVRKIEIVRKKPIFKKATVTLEDHLACKCETVAAARPVT
modifications: homodimer
notes: growth factor of the tested panel of soluble mediators
B2: IL-13: cytokine; recombinant mouse IL-13 (eBiosciences) (protein, UniProt P20109 19-131, looked up)
Interleukin-13: APGPVPRSVSLPLTLKELIEELSNITQDQTPLCNGSMVWSVDLAAGGFCVALDSLTNISNCNAIYRTQRILHGLCNRKAPTTVSSLPDTKIEVAHFITKLLSYTKQLFRHGPF
B3: IL-5: cytokine; recombinant mouse IL-5 (eBiosciences) (protein, UniProt P04401 21-133, looked up)
Interleukin-5: MEIPMSTVVKETLTQLSAHRALLTSNETMRLPVPTHKNHQLCIGEIFQGLDILKNQTVRGGTVEMLFQNLSLIKKYIDRQKEKCGEERRRTRQFLDYLQEFLGVMSTEWAMEG

What was measured:
[1] = test system: IGF-1R, Akt and Erk1/2 phosphorylation in LR73 cells; assay: Immunoblotting of signaling in LR73 cells; format: cell-based, hamster; conditions: serum-starved LR73 cells, 100 ng/mL growth factor
Description: LR73, J774, or BEAS-2B cells were seeded in a 60 mm dish at a concentration of 5×10^5. […] Cells were lysed in RIPA buffer and used in Western blots. The blots were probed for phospho-Erk1/2 (Cell Signaling Technology, #4370), phospho-Akt (Cell Signaling Technology, #4060), phospho-IGF-1R (Cell Signaling, #3024), total Erk2 (Santa Cruz Biotechnology, #sc-154-G), total Akt (Cell Signaling Technology, #4691), total IGF-1R (Cell Signaling, #9750), and anti-B-actin-HRP (Sigma-Aldrich, #A3854) followed by chemiluminescence detection.

[2] = test system: LR73 cells; assay: In vitro engulfment assay: apoptotic thymocyte uptake by LR73 cells; format: cell-based, hamster; conditions: soluble mediator alone; IGF-I at concentrations reported in serum (100-600 ng/mL); other factors over a range of concentrations
Description: LR73, SVEC-40, BEAS-2B, and 16HBE14o-cells were seeded in a 24 well plate. Thymocytes were isolated from 4-6 week old mice and induced to undergo apoptosis with dexamethasone. Thymocytes or prepared microvesicles were then stained with either CypHer5E (GE Healthcare, PA15401) or TAMRA (Invitrogen, C-1171). LR73 and SVEC-40 cells were incubated with apoptotic thymocytes at a 1:10 phagocyte to target ratio, BEAS-2B at a 1:5 phagocyte to target ratio, and 16HBE14o—at a 1:20 phagocyte to target ratio for 2 hours. Mouse IGF-I (Sigma-Aldrich), human IGF-I (Sigma-Aldrich), human IGF-II (Sigma-Aldrich) were added to the phagocytes at the same time as addition of apoptotic targets. For IGFBP3 studies, IGFBP3 (Sigma-Aldrich) was added to media or supernatant from J774 cells for one hour to allow IGFBP3 to bind to any available IGF-I, then the mix is added to phagocytes along with apoptotic targets. […] Targets were then washed off three times with PBS, and the cells were dissociated from the plate with trypsin and the engulfment assessed by flow cytometry.

[3] = test system: IGF-1 in BAL fluid; assay: In vivo cytokine administration: IGF-1 in BAL fluid; conditions: 1 μg recombinant mouse cytokine intranasally for two consecutive days
Description: Mice were administered intranasally with 1 μg of recombinant mouse IL-4, IL-5, or IL-13 (eBiosciences), 1×10^6 apoptotic Jurkat cells, or PBS as control, for two consecutive days. On the third day, BAL fluid was recovered and centrifuged; the supernatant was stored at −80° C. for subsequent cytokine analysis. IL-4, IL-5, IL-6, and CCL-11/Eotaxin-1 in the BAL fluid of mice that were sensitized with HDM (regimen #1) were quantified by a multiplex Luminex performed by the University of Virginia Flow Cytometry Core Facility. Secretion of IGF-1 from J774 cells, peritoneal macrophages, and BAL fluids, as well as TSLP from BAL fluids, were measured by ELISA (R&D Systems).

Molecule | early downstream signaling events (Erk1/2 phosphorylation) [1] | apoptotic cell uptake (engulfment) by LR73 cells [2] | IGF-1 in bronchoalveolar lavage (BAL) fluid [3]
B1 | elicited early downstream signaling events | did not alter engulfment | 
B2 |  |  | induced IGF-1 production
B3 |  |  | but not IL-5, induced IGF-1 production
